Measurements reported in the supplement of paper PMC11908140.

B1: library; numbered along this chain (parent)
chain: MRKPRAAVGSGHRKQAASQEGRQKHAKNNSQAKPSACDGLARQPEEVVLQASVSSYHLFRDVAEVTAFRGSLLSWYDQEKRDLPWRRRAEDEMDLDRRAYAVWVSEVMLQQTQVATVINYYTGWMQKWPTLQDLASASLEEVNQLWAGLGYYSRGRRLQEGARKVVEELGGHMPRTAETLQQLLPGVGRYTAGAIASIAFGQATGVVDGNVARVLCRVRAIGADPSSTLVSQQLWGLAQQLVDPARPGDFNQAAMELGATVCTPQRPLCSQCPVESLCRARQRVEQEQLLASGSLSGSPDVEECAPNTGQCHLCLPPSEPWDQTLGVVNFPRKASRKPPREESSATCVLEQPGALGAQILLVQRPNSGLLAGLWEFPSVTWEPSEQLQRKALLQELQRWAGPLPATHLRHLGEVVHTFSHIKLTYQVYGLALEGQTPVTTVPPGARWLTQEEFHTAAVSTAMKKVFRVYQGQQPGTCMGSKRSQVSSPCSRKKPRMGQQVLDNFFRSHISTDAHSLNSAAQ

Variants of: B1
Assay: 8OG:A repair function score (normalized; synonymous = 0, nonsense = -1) (normalized log-likelihood score); higher = more repair activity (WT-like)
Details: with 8OG:A DNA repair reporter (GFP) in HEK-293 MUTYH KO cells
In short: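 Lentiviral MUTYH cDNA NNN codon-scan libraries were expressed in MUTYH knockout HEK-293 cells with 10 pg/ml doxycycline, and the cells received an 8OG:A GFP repair reporter together with mCherry. At 72 h, viable mCherry+ cells went into GFP+ (repair) or GFP− bins, three replicates per tile, before tile amplicons were sequenced. A repair function score was then built from per-tile Rosace fitness scores, anchored on the synonymous and nonsense distributions. Synonymous medians sat at 0 and nonsense at -1, and variants under 300 counts per million at the start were left out.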
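Also: cells sorted at 72 h after reporter transfection.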

First: MRKPRAAVGSGHRKQAASQEGRQKHAKNNSQAKPSACDGLARQPEEVVLQASVSSYHLFRDVAEVTAFRGSLLSWYDQEKRDLPWRRRAEDEMDLDRRAYAVWVSEVMLQQTQVATVINYYTGWMQKWPTLQDLASASLEEVNQLWAGLGYYSRGRRLQEGARKVVEELGGHMPRTAETLQQLLPGVGRYTAGAIASIAFGQATGVVDGNVARVLCRVRAIGADPSSTLVSQQLWGLAQQLVDPARPGDFNQAAMELGATVCTPQRPLCSQCPVESLCRARQRVEQEQLLASGSLSGSPDVEECAPNTGQCHLCLPPSEPWDQTLGVVNFPRKASRKPPREESSATCVLEQPGALGAQILLVQRPNSGLLAGLWEFPSVTWEPSEQLQRKALLQELQRWAGPLPATHLRHLGEVVHTYSHIKLTYQVYGLALEGQTPVTTVPPGARWLTQEEFHTAAVSTAMKKVFRVYQGQQPGTCMGSKRSQVSSPCSRKKPRMGQQVLDNFFRSHISTDAHSLNSAAQ [F418Y]
Second: MRKPRAAVGSGHRKQAASQEGRQKHAKNNSQAKPSACDGLARQPEEVVLQASVSSYHLFRDVAEVTAFRGSLLSWYDQEKRDLPWRRRAEDEMDLDRRAYAVWVSEVMLQQTQVATVINYYTGWMQKWPTLQDLASASLEEVNQLWAGLGYYSRGRRLQEGARKVVEELGGHMPRTAETLQQLLPGVGRYTAGAIASIAFGQATGVVDGNVARVLCRVRAIGADPSSTLVSQQLWGLAQQLVDPARPGDFNQAAMELGATVCTPQRPLCSQCPVESLCRARQRVEQEQLLASGSLSGSPDVEECAPNTGQCHLCLPPSEPWDQTLGVVNFPRKASRKPPREESSATCVLEQPGALGAQILLVQRPNSGLLAGLWEFPSVTWEPSEQLQRKALLQELQRWAGPLPATHLRHLGEVVHTFLHIKLTYQVYGLALEGQTPVTTVPPGARWLTQEEFHTAAVSTAMKKVFRVYQGQQPGTCMGSKRSQVSSPCSRKKPRMGQQVLDNFFRSHISTDAHSLNSAAQ [S419L]
The “8OG:A repair function score” value of the first is higher: -0.368 for the first, -0.749 for the second.

Going from MRKPRAAVGSGHRKQAASQEGRQKHAKNNSQAKPSACDGLARQPEEVVLQASVSSYHLFRDVAEVTAFRGSLLSWYDQEKRDLPWRRRAEDEMDLDRRAYAVWVSEVMLQQTQVATVINYYTGWMQKWPTLQDLASASLEEVNQLWAGLGYYSRGRRLQEGARKVVEELGGHMPRTAETLQQLLPGVGRYTAGAIASIAFGQATGVVDGNVARVLCRVRAIGADPSSTLVSQQLWGLAQQLVDPARPGDFNQAAMELGATVCTPQRPLCSQCPVESLCRARQRVEQEQLLASGSLSGSPDVEECAPNTGQCHLCLPPSEPWDQTLGVVNFPRKASRKPPREESSATCVLEQPGALGAQILLVQRPNSGLLAGLWEFPSVTWEPSEQLQRKALLQELQRWAGPLPATHLRHLGEVVHTFMHIKLTYQVYGLALEGQTPVTTVPPGARWLTQEEFHTAAVSTAMKKVFRVYQGQQPGTCMGSKRSQVSSPCSRKKPRMGQQVLDNFFRSHISTDAHSLNSAAQ [S419M] to MRKPRAAVGSGHRKQAASQEGRQKHAKNNSQAKPSACDGLARQPEEVVLQASVSSYHLFRDVAEVTAFRGSLLSWYDQEKRDLPWRRRAEDEMDLDRRAYAVWVSEVMLQQTQVATVINYYTGWMQKWPTLQDLASASLEEVNQLWAGLGYYSRGRRLQEGARKVVEELGGHMPRTAETLQQLLPGVGRYTAGAIASIAFGQATGVVDGNVARVLCRVRAIGADPSSTLVSQQLWGLAQQLVDPARPGDFNQAAMELGATVCTPQRPLCSQCPVESLCRARQRVEQEQLLASGSLSGSPDVEECAPNTGQCHLCLPPSEPWDQTLGVVNFPRKASRKPPREESSATCVLEQPGALGAQILLVQRPNSGLLAGLWEFPSVTWEPSEQLQRKALLQELQRWAGPLPATHLRHLGEVVHTFDHIKLTYQVYGLALEGQTPVTTVPPGARWLTQEEFHTAAVSTAMKKVFRVYQGQQPGTCMGSKRSQVSSPCSRKKPRMGQQVLDNFFRSHISTDAHSLNSAAQ [S419D], the “8OG:A repair function score” value rises from -0.561 to -0.221.

First: MRKPRAAVGSGHRKQAASQEGRQKHAKNNSQAKPSACDGLARQPEEVVLQASVSSYHLFRDVAEVTAFRGSLLSWYDQEKRDLPWRRRAEDEMDLDRRAYAVWVSEVMLQQTQVATVINYYTGWMQKWPTLQDLASASLEEVNQLWAGLGYYSRGRRLQEGARKVVEELGGHMPRTAETLQQLLPGVGRYTAGAIASIAFGQATGVVDGNVARVLCRVRAIGADPSSTLVSQQLWGLAQQLVDPARPGDFNQAAMELGATVCTPQRPLCSQCPVESLCRARQRVEQEQLLASGSLSGSPDVEECAPNTGQCHLCLPPSEPWDQTLGVVNFPRKASRKPPREESSATCVLEQPGALGAQILLVQRPNSGLLAGLWEFPSVTWEPSEQLQRKALLQELQRWAGPLPATHLRHLGEVVHTFIHIKLTYQVYGLALEGQTPVTTVPPGARWLTQEEFHTAAVSTAMKKVFRVYQGQQPGTCMGSKRSQVSSPCSRKKPRMGQQVLDNFFRSHISTDAHSLNSAAQ [S419I]
Second: MRKPRAAVGSGHRKQAASQEGRQKHAKNNSQAKPSACDGLARQPEEVVLQASVSSYHLFRDVAEVTAFRGSLLSWYDQEKRDLPWRRRAEDEMDLDRRAYAVWVSEVMLQQTQVATVINYYTGWMQKWPTLQDLASASLEEVNQLWAGLGYYSRGRRLQEGARKVVEELGGHMPRTAETLQQLLPGVGRYTAGAIASIAFGQATGVVDGNVARVLCRVRAIGADPSSTLVSQQLWGLAQQLVDPARPGDFNQAAMELGATVCTPQRPLCSQCPVESLCRARQRVEQEQLLASGSLSGSPDVEECAPNTGQCHLCLPPSEPWDQTLGVVNFPRKASRKPPREESSATCVLEQPGALGAQILLVQRPNSGLLAGLWEFPSVTWEPSEQLQRKALLQELQRWAGPLPATHLRHLGEVVHTFGHIKLTYQVYGLALEGQTPVTTVPPGARWLTQEEFHTAAVSTAMKKVFRVYQGQQPGTCMGSKRSQVSSPCSRKKPRMGQQVLDNFFRSHISTDAHSLNSAAQ [S419G]
The “8OG:A repair function score” value of the first is lower: -0.542 for the first, -0.522 for the second.

First: MRKPRAAVGSGHRKQAASQEGRQKHAKNNSQAKPSACDGLARQPEEVVLQASVSSYHLFRDVAEVTAFRGSLLSWYDQEKRDLPWRRRAEDEMDLDRRAYAVWVSEVMLQQTQVATVINYYTGWMQKWPTLQDLASASLEEVNQLWAGLGYYSRGRRLQEGARKVVEELGGHMPRTAETLQQLLPGVGRYTAGAIASIAFGQATGVVDGNVARVLCRVRAIGADPSSTLVSQQLWGLAQQLVDPARPGDFNQAAMELGATVCTPQRPLCSQCPVESLCRARQRVEQEQLLASGSLSGSPDVEECAPNTGQCHLCLPPSEPWDQTLGVVNFPRKASRKPPREESSATCVLEQPGALGAQILLVQRPNSGLLAGLWEFPSVTWEPSEQLQRKALLQELQRWAGPLPATHLRHLGEVVHTFKHIKLTYQVYGLALEGQTPVTTVPPGARWLTQEEFHTAAVSTAMKKVFRVYQGQQPGTCMGSKRSQVSSPCSRKKPRMGQQVLDNFFRSHISTDAHSLNSAAQ [S419K]
Second: MRKPRAAVGSGHRKQAASQEGRQKHAKNNSQAKPSACDGLARQPEEVVLQASVSSYHLFRDVAEVTAFRGSLLSWYDQEKRDLPWRRRAEDEMDLDRRAYAVWVSEVMLQQTQVATVINYYTGWMQKWPTLQDLASASLEEVNQLWAGLGYYSRGRRLQEGARKVVEELGGHMPRTAETLQQLLPGVGRYTAGAIASIAFGQATGVVDGNVARVLCRVRAIGADPSSTLVSQQLWGLAQQLVDPARPGDFNQAAMELGATVCTPQRPLCSQCPVESLCRARQRVEQEQLLASGSLSGSPDVEECAPNTGQCHLCLPPSEPWDQTLGVVNFPRKASRKPPREESSATCVLEQPGALGAQILLVQRPNSGLLAGLWEFPSVTWEPSEQLQRKALLQELQRWAGPLPATHLRHLGEVVHTFEHIKLTYQVYGLALEGQTPVTTVPPGARWLTQEEFHTAAVSTAMKKVFRVYQGQQPGTCMGSKRSQVSSPCSRKKPRMGQQVLDNFFRSHISTDAHSLNSAAQ [S419E]
The “8OG:A repair function score” value of the first is higher: 0.0315 for the first, -0.583 for the second.

Going from MRKPRAAVGSGHRKQAASQEGRQKHAKNNSQAKPSACDGLARQPEEVVLQASVSSYHLFRDVAEVTAFRGSLLSWYDQEKRDLPWRRRAEDEMDLDRRAYAVWVSEVMLQQTQVATVINYYTGWMQKWPTLQDLASASLEEVNQLWAGLGYYSRGRRLQEGARKVVEELGGHMPRTAETLQQLLPGVGRYTAGAIASIAFGQATGVVDGNVARVLCRVRAIGADPSSTLVSQQLWGLAQQLVDPARPGDFNQAAMELGATVCTPQRPLCSQCPVESLCRARQRVEQEQLLASGSLSGSPDVEECAPNTGQCHLCLPPSEPWDQTLGVVNFPRKASRKPPREESSATCVLEQPGALGAQILLVQRPNSGLLAGLWEFPSVTWEPSEQLQRKALLQELQRWAGPLPATHLRHLGEVVHTFHHIKLTYQVYGLALEGQTPVTTVPPGARWLTQEEFHTAAVSTAMKKVFRVYQGQQPGTCMGSKRSQVSSPCSRKKPRMGQQVLDNFFRSHISTDAHSLNSAAQ [S419H] to MRKPRAAVGSGHRKQAASQEGRQKHAKNNSQAKPSACDGLARQPEEVVLQASVSSYHLFRDVAEVTAFRGSLLSWYDQEKRDLPWRRRAEDEMDLDRRAYAVWVSEVMLQQTQVATVINYYTGWMQKWPTLQDLASASLEEVNQLWAGLGYYSRGRRLQEGARKVVEELGGHMPRTAETLQQLLPGVGRYTAGAIASIAFGQATGVVDGNVARVLCRVRAIGADPSSTLVSQQLWGLAQQLVDPARPGDFNQAAMELGATVCTPQRPLCSQCPVESLCRARQRVEQEQLLASGSLSGSPDVEECAPNTGQCHLCLPPSEPWDQTLGVVNFPRKASRKPPREESSATCVLEQPGALGAQILLVQRPNSGLLAGLWEFPSVTWEPSEQLQRKALLQELQRWAGPLPATHLRHLGEVVHTFCHIKLTYQVYGLALEGQTPVTTVPPGARWLTQEEFHTAAVSTAMKKVFRVYQGQQPGTCMGSKRSQVSSPCSRKKPRMGQQVLDNFFRSHISTDAHSLNSAAQ [S419C], the “8OG:A repair function score” value falls from -0.28 to -0.434.

Compared with MRKPRAAVGSGHRKQAASQEGRQKHAKNNSQAKPSACDGLARQPEEVVLQASVSSYHLFRDVAEVTAFRGSLLSWYDQEKRDLPWRRRAEDEMDLDRRAYAVWVSEVMLQQTQVATVINYYTGWMQKWPTLQDLASASLEEVNQLWAGLGYYSRGRRLQEGARKVVEELGGHMPRTAETLQQLLPGVGRYTAGAIASIAFGQATGVVDGNVARVLCRVRAIGADPSSTLVSQQLWGLAQQLVDPARPGDFNQAAMELGATVCTPQRPLCSQCPVESLCRARQRVEQEQLLASGSLSGSPDVEECAPNTGQCHLCLPPSEPWDQTLGVVNFPRKASRKPPREESSATCVLEQPGALGAQILLVQRPNSGLLAGLWEFPSVTWEPSEQLQRKALLQELQRWAGPLPATHLRHLGEVVHTFAHIKLTYQVYGLALEGQTPVTTVPPGARWLTQEEFHTAAVSTAMKKVFRVYQGQQPGTCMGSKRSQVSSPCSRKKPRMGQQVLDNFFRSHISTDAHSLNSAAQ [S419A], MRKPRAAVGSGHRKQAASQEGRQKHAKNNSQAKPSACDGLARQPEEVVLQASVSSYHLFRDVAEVTAFRGSLLSWYDQEKRDLPWRRRAEDEMDLDRRAYAVWVSEVMLQQTQVATVINYYTGWMQKWPTLQDLASASLEEVNQLWAGLGYYSRGRRLQEGARKVVEELGGHMPRTAETLQQLLPGVGRYTAGAIASIAFGQATGVVDGNVARVLCRVRAIGADPSSTLVSQQLWGLAQQLVDPARPGDFNQAAMELGATVCTPQRPLCSQCPVESLCRARQRVEQEQLLASGSLSGSPDVEECAPNTGQCHLCLPPSEPWDQTLGVVNFPRKASRKPPREESSATCVLEQPGALGAQILLVQRPNSGLLAGLWEFPSVTWEPSEQLQRKALLQELQRWAGPLPATHLRHLGEVVHTFFHIKLTYQVYGLALEGQTPVTTVPPGARWLTQEEFHTAAVSTAMKKVFRVYQGQQPGTCMGSKRSQVSSPCSRKKPRMGQQVLDNFFRSHISTDAHSLNSAAQ [S419F] is lower in “8OG:A repair function score” value: -0.188 for the first, -0.753 for the second.
